Measurements from IntAct's records for PubMed 22270917.

Target: fak1_human PTK2 (UniProt Q05397)
Sequence (Q05397 whole entry, looked up): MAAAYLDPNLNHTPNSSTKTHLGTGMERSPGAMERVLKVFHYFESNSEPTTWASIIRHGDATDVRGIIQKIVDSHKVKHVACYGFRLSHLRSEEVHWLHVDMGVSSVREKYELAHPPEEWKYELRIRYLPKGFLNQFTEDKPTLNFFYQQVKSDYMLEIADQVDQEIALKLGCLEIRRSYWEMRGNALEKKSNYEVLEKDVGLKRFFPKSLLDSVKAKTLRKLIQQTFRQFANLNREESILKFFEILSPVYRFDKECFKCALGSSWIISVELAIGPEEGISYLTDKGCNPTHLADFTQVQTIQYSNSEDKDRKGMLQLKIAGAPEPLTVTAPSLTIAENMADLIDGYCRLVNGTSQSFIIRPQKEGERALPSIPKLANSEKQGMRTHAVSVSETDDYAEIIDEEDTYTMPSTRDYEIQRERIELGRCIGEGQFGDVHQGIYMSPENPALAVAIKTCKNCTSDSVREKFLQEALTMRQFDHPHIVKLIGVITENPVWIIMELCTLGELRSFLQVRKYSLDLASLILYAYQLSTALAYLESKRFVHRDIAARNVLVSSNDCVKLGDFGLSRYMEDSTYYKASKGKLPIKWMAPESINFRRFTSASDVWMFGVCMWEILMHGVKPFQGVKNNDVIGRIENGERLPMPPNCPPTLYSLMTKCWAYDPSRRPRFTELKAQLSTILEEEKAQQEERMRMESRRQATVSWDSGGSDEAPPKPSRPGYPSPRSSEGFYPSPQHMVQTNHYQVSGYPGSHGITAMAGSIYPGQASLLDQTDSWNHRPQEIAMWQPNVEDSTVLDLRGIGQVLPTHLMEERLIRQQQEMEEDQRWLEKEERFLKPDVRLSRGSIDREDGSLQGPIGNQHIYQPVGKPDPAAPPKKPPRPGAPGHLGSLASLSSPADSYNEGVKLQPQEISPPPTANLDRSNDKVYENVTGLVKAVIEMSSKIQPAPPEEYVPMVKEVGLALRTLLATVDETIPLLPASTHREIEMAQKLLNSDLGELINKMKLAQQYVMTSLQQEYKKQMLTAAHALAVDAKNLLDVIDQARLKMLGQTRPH

## Talin-1 (Gallus gallus (Chicken)), P54939 A360E
  effect of a mutation on the interaction: disrupting interaction

## Talin-1 (Gallus gallus (Chicken)), P54939 W359A
  effect of a mutation on the interaction: disrupting interaction
